According to the supplement of paper PMC10065799, “High-throughput profiling of sequence recognition by tyrosine kinases and SH2 domains using bacterial peptide display” (eLife, 2023):
Values belong to the sequence of their own block, whether it stands above or below them.

Tests used:
SHP2-C SH2 = experiment: SH2 binding enrichment of the phosphorylated peptide, bacterial display (enrichment ratio); higher = better substrate or ligand; peptides without Tyr show the background
c-Src SH2 = experiment: as above
Grb2 SH2 = Grb2 SH2 (UniProt P62993); experiment: as above
Fyn = Fyn (UniProt P06241); experiment: phosphorylation enrichment, bacterial display (enrichment ratio); higher = better substrate or ligand; peptides without Tyr show the background
Chain of Fyn (P06241 whole entry, looked up): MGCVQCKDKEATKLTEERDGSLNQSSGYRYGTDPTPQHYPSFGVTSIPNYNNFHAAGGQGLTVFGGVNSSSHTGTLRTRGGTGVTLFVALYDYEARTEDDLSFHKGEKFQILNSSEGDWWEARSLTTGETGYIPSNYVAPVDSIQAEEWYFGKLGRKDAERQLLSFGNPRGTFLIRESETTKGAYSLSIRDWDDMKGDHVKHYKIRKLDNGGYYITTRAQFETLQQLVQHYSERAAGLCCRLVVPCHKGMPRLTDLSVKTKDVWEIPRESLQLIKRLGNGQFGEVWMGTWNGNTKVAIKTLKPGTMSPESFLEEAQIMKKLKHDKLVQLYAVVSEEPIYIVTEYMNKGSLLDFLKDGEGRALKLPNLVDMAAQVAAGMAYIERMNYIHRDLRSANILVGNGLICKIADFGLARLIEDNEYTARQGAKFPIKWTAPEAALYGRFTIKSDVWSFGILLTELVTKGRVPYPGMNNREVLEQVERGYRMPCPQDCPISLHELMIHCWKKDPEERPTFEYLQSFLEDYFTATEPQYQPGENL

c-Src = experiment: as above
MERTK = MERTK (UniProt Q12866); experiment: as above
Hck = Hck (UniProt P08631); experiment: as above
Chain of Hck (P08631 whole entry, looked up): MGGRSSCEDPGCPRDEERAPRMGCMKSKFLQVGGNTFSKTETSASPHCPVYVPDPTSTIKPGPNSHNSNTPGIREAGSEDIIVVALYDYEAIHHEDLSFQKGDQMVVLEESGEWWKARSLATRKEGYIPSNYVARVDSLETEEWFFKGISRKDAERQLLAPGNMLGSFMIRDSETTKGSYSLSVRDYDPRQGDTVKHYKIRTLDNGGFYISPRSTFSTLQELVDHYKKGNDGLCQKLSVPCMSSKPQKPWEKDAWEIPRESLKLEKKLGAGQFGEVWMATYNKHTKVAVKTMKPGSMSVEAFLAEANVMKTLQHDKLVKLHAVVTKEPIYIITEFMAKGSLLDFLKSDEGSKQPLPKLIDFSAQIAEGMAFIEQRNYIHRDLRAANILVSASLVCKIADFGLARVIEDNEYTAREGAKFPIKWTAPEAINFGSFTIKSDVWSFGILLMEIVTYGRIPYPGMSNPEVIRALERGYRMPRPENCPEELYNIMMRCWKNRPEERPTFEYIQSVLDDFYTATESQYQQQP

EPHB1 = EPHB1 (UniProt P54762); experiment: as above
Chain of EPHB1 (P54762 whole entry, looked up): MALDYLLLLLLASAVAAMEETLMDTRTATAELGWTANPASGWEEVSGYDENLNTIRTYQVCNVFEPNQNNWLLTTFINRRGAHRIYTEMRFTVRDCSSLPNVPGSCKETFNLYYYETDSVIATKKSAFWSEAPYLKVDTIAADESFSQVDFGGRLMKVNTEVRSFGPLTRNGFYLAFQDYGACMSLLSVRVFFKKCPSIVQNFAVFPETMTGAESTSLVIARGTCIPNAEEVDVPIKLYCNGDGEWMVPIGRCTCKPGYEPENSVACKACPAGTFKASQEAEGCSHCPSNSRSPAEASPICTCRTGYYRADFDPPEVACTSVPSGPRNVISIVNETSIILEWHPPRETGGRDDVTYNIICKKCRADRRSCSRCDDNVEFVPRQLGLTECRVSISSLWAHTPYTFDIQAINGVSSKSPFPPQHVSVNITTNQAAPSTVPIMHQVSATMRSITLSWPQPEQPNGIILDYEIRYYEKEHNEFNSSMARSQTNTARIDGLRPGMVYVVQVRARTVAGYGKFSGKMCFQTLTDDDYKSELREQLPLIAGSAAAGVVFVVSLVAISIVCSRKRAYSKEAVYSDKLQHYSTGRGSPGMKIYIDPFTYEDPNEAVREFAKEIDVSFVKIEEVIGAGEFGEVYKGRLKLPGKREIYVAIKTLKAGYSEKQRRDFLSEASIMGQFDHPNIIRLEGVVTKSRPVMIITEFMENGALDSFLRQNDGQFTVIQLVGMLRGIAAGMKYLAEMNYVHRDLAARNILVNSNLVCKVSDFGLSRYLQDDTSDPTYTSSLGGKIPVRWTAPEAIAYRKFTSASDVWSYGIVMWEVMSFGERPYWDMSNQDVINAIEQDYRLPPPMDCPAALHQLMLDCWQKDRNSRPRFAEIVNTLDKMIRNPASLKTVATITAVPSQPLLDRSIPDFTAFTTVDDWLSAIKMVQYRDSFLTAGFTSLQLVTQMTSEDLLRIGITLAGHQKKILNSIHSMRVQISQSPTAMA

c-Abl (mouse) = experiment: as above
EPHB2 = EPHB2 (UniProt P29323); experiment: as above
Chain of EPHB2 (P29323 whole entry, looked up): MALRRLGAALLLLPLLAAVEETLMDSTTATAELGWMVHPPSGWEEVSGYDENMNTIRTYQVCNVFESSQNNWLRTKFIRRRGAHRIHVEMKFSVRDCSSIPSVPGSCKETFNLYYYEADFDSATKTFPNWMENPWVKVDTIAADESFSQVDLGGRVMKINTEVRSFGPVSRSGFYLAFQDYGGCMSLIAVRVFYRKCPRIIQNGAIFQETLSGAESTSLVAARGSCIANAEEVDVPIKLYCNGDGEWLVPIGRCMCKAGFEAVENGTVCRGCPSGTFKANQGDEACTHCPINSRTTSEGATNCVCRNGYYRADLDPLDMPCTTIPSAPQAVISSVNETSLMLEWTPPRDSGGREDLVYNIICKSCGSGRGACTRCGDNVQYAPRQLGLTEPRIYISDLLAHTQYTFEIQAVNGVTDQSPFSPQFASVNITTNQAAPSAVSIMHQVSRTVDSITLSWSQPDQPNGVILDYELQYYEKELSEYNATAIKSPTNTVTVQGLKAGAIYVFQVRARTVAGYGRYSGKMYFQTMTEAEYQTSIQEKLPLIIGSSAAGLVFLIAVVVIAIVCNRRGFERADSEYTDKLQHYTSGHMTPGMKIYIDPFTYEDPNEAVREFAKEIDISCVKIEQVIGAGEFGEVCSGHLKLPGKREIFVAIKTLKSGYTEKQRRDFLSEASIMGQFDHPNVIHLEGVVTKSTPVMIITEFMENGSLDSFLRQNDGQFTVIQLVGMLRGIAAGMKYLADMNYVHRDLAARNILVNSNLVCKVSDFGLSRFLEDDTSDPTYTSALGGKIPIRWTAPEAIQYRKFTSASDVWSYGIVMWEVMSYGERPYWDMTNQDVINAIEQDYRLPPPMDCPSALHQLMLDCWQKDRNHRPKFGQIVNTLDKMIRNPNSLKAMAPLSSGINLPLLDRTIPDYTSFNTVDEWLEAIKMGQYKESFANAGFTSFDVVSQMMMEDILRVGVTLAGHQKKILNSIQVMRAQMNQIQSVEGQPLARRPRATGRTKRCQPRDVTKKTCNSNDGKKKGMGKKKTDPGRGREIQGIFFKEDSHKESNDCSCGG

FGFR1 = FGFR1 (UniProt P11362); experiment: as above
Fer (mouse) = experiment: as above
AncSZ = experiment: as above
Jak2 = Jak2 (UniProt O60674); experiment: as above
Chain of Jak2 (O60674 whole entry, looked up): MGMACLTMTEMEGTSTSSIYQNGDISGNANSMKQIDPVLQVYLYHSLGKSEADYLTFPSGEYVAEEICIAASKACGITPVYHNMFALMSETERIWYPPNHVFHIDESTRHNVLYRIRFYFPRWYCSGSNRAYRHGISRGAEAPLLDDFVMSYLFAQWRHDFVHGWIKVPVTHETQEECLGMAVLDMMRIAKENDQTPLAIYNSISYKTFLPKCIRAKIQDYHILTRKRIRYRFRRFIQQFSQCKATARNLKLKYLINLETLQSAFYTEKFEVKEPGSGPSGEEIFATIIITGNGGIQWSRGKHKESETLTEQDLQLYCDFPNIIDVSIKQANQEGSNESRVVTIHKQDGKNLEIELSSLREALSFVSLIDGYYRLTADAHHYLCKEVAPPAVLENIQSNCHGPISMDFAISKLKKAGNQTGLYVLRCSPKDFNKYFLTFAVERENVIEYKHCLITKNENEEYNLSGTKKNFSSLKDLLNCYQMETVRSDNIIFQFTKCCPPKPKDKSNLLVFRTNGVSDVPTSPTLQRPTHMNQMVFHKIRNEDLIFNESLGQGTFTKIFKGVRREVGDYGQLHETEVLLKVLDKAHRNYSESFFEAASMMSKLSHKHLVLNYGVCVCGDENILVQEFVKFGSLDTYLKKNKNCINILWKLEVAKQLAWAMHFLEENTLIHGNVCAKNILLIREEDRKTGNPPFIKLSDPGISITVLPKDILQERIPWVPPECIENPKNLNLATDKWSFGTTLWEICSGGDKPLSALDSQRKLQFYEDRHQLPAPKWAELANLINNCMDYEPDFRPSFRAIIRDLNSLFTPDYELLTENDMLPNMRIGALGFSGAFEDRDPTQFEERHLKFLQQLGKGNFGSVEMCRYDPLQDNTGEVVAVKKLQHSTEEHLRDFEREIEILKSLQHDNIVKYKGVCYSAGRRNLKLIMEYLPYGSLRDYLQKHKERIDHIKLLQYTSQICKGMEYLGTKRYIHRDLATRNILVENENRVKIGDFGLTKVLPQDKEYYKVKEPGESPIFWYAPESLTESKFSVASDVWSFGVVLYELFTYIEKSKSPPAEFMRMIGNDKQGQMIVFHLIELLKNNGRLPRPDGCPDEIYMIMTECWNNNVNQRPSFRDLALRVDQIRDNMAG

Fes = Fes (UniProt P07332); experiment: as above
FGFR3 = FGFR3 (UniProt P22607); experiment: as above
Chain of FGFR3 (P22607 whole entry, looked up, the tested form may be a part): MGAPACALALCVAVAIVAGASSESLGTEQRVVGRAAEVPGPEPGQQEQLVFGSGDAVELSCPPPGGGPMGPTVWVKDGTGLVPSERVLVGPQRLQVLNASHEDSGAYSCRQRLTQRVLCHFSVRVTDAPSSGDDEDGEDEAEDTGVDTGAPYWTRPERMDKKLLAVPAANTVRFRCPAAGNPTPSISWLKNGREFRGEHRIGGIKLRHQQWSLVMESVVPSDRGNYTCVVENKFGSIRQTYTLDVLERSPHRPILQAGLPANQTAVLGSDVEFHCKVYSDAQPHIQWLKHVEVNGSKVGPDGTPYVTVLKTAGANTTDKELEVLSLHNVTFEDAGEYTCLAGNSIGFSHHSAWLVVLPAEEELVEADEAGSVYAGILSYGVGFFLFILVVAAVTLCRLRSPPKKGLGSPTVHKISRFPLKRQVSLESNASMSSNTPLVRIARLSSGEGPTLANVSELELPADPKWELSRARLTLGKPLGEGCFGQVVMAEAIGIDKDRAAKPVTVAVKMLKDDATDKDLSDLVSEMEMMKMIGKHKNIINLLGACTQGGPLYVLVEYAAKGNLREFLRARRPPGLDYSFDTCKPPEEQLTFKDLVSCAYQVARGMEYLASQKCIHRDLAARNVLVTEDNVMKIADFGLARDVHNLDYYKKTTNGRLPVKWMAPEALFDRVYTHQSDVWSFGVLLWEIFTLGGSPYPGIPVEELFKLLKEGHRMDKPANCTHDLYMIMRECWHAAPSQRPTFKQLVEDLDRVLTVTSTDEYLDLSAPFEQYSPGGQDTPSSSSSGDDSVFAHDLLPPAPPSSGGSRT
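For SH2 binding enrichment of the phosphorylated peptide, bacterial display in this document: peptide library displayed on the E. coli surface as eCPX fusions, selected cells deep-sequenced, score is each peptide's frequency after selection divided by its frequency in the input.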
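For phosphorylation enrichment, bacterial display in this document: 11-residue human phosphosite peptides and single-mutation variants displayed on the E. coli surface, counted by deep sequencing, each peptide's frequency after selection divided by its frequency in the unselected input library; frequency after pTyr selection over input frequency; kinase dosed for 20-30% of maximal phosphorylation in three min.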

SH2 binding enrichment (SHP2-C SH2): 0.819
SH2 binding enrichment (c-Src SH2): 0.753
SH2 binding enrichment (Grb2 SH2): 0.904
Sequence: RETLTYAQAQR [BRD1_Y33]
phosphorylation enrichment (Fyn): 0.584
phosphorylation enrichment (c-Src): 0.623
phosphorylation enrichment (MERTK): 0.529
phosphorylation enrichment (Hck): 0.746
phosphorylation enrichment (EPHB1): 0.383
phosphorylation enrichment (c-Abl (mouse)): 0.963
phosphorylation enrichment (EPHB2): 0.478
phosphorylation enrichment (FGFR1): 0.541
phosphorylation enrichment (Fer (mouse)): 0.42
phosphorylation enrichment (AncSZ): 0.702
phosphorylation enrichment (Jak2): 0.694
phosphorylation enrichment (Fes): 0.737
phosphorylation enrichment (FGFR3): 0.525

SH2 binding enrichment (SHP2-C SH2): 0.707
SH2 binding enrichment (c-Src SH2): 0.565
SH2 binding enrichment (Grb2 SH2): 0.927
Sequence: RFLERDIFNRE [HLA-DPB1_Y57_Y57D_YF]
phosphorylation enrichment (Fyn): 0.518
phosphorylation enrichment (c-Src): 0.584
phosphorylation enrichment (MERTK): 0.548
phosphorylation enrichment (Hck): 0.771
phosphorylation enrichment (EPHB1): 0.769
phosphorylation enrichment (c-Abl (mouse)): 1.29
phosphorylation enrichment (EPHB2): 0.569
phosphorylation enrichment (FGFR1): 0.682
phosphorylation enrichment (Fer (mouse)): 1.01
phosphorylation enrichment (AncSZ): 1.17
phosphorylation enrichment (Jak2): 1.69
phosphorylation enrichment (Fes): 1.01
phosphorylation enrichment (FGFR3): 1.1

SH2 binding enrichment (SHP2-C SH2): 0.429
SH2 binding enrichment (c-Src SH2): 0.446
SH2 binding enrichment (Grb2 SH2): 0.701
Sequence: RFWPRYVKVGS [NOG_Y172]
phosphorylation enrichment (Fyn): 0.68
phosphorylation enrichment (c-Src): 0.535
phosphorylation enrichment (MERTK): 0.46
phosphorylation enrichment (Hck): 0.726
phosphorylation enrichment (EPHB1): 0.532
phosphorylation enrichment (c-Abl (mouse)): 0.691
phosphorylation enrichment (EPHB2): 0.478
phosphorylation enrichment (FGFR1): 0.487
phosphorylation enrichment (Fer (mouse)): 0.726
phosphorylation enrichment (AncSZ): 1.36
phosphorylation enrichment (Jak2): 0.622
phosphorylation enrichment (Fes): 0.624
phosphorylation enrichment (FGFR3): 0.751

SH2 binding enrichment (SHP2-C SH2): 0.739
SH2 binding enrichment (c-Src SH2): 1.04
SH2 binding enrichment (Grb2 SH2): 0.98
Sequence: RGDCMYAPLLG [AR_Y269]
phosphorylation enrichment (Fyn): 8.2
phosphorylation enrichment (c-Src): 5.61
phosphorylation enrichment (MERTK): 10.4
phosphorylation enrichment (Hck): 10.9
phosphorylation enrichment (EPHB1): 7.23
phosphorylation enrichment (c-Abl (mouse)): 5.89
phosphorylation enrichment (EPHB2): 8.4
phosphorylation enrichment (FGFR1): 3.08
phosphorylation enrichment (Fer (mouse)): 4.16
phosphorylation enrichment (AncSZ): 0.898
phosphorylation enrichment (Jak2): 0.743
phosphorylation enrichment (Fes): 0.885
phosphorylation enrichment (FGFR3): 1.83

SH2 binding enrichment (SHP2-C SH2): 0.888
SH2 binding enrichment (c-Src SH2): 0.55
SH2 binding enrichment (Grb2 SH2): 0.919
Sequence: RGDIFYTSKLW [AKR1C3_Y81_E77G]
phosphorylation enrichment (Fyn): 0.611
phosphorylation enrichment (c-Src): 0.735
phosphorylation enrichment (MERTK): 0.803
phosphorylation enrichment (Hck): 0.46
phosphorylation enrichment (EPHB1): 0.964
phosphorylation enrichment (c-Abl (mouse)): 0.889
phosphorylation enrichment (EPHB2): 0.963
phosphorylation enrichment (FGFR1): 0.923
phosphorylation enrichment (Fer (mouse)): 0.648
phosphorylation enrichment (AncSZ): 1.72
phosphorylation enrichment (Jak2): 1.33
phosphorylation enrichment (Fes): 1.59
phosphorylation enrichment (FGFR3): 1.09

SH2 binding enrichment (SHP2-C SH2): 0.634
SH2 binding enrichment (c-Src SH2): 0.488
SH2 binding enrichment (Grb2 SH2): 0.797
Sequence: RGDVIYKGFED [NFU1_Y194_G189R]
phosphorylation enrichment (Fyn): 4.47
phosphorylation enrichment (c-Src): 2.03
phosphorylation enrichment (MERTK): 0.481
phosphorylation enrichment (Hck): 1.07
phosphorylation enrichment (EPHB1): 0.622
phosphorylation enrichment (c-Abl (mouse)): 0.445
phosphorylation enrichment (EPHB2): 0.672
phosphorylation enrichment (FGFR1): 0.514
phosphorylation enrichment (Fer (mouse)): 0.681
phosphorylation enrichment (AncSZ): 0.81
phosphorylation enrichment (Jak2): 0.815
phosphorylation enrichment (Fes): 1.03
phosphorylation enrichment (FGFR3): 0.699

SH2 binding enrichment (SHP2-C SH2): 1.42
SH2 binding enrichment (c-Src SH2): 0.417
SH2 binding enrichment (Grb2 SH2): 1
Sequence: RGFDTYFGYLL [ARSB_Y165]
phosphorylation enrichment (Fyn): 8.58
phosphorylation enrichment (c-Src): 6.46
phosphorylation enrichment (MERTK): 4.01
phosphorylation enrichment (Hck): 7.09
phosphorylation enrichment (EPHB1): 5.14
phosphorylation enrichment (c-Abl (mouse)): 1.56
phosphorylation enrichment (EPHB2): 8.25
phosphorylation enrichment (FGFR1): 3.58
phosphorylation enrichment (Fer (mouse)): 3.59
phosphorylation enrichment (AncSZ): 2.15
phosphorylation enrichment (Jak2): 5.83
phosphorylation enrichment (Fes): 1.63
phosphorylation enrichment (FGFR3): 3.3

SH2 binding enrichment (SHP2-C SH2): 0.381
SH2 binding enrichment (c-Src SH2): 0.482
SH2 binding enrichment (Grb2 SH2): 0.698
Sequence: RGKDSYETSQL [SPP1_Y225]
phosphorylation enrichment (Fyn): 0.484
phosphorylation enrichment (c-Src): 0.449
phosphorylation enrichment (MERTK): 0.5
phosphorylation enrichment (Hck): 0.412
phosphorylation enrichment (EPHB1): 0.552
phosphorylation enrichment (c-Abl (mouse)): 0.313
phosphorylation enrichment (EPHB2): 0.529
phosphorylation enrichment (FGFR1): 0.632
phosphorylation enrichment (Fer (mouse)): 0.594
phosphorylation enrichment (AncSZ): 0.681
phosphorylation enrichment (Jak2): 0.643
phosphorylation enrichment (Fes): 0.913
phosphorylation enrichment (FGFR3): 0.697
